This data set has as its target T1, mRAG1F (mouse, UniProt P15919 389-456).
T1 sequence: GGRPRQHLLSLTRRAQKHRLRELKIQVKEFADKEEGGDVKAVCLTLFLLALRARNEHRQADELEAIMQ
Put plainly: DNA-binding assay (type not stated); EMSA: 25 mM MOPS pH 7.0, 50 mM KCl, 2 mM DTT, 1.5 mM CaCl2, 2.5% glycerol, 50 nM HMGB1, 100 nM ss nonspecific oligo, ~50 nM each RAG, 25 C 20 min; pull-down: 50 mM Tris pH 7.5, 150 mM NaCl, 0.5% NP40, 5% glycerol, 1.5 mM CaCl2, 4 C. Particulars: protein: recombinant; chain copies: 2; label: 5' biotin on strand 1; blunt. For orientation: A gel shift assay detects complexes by their altered migration in electrophoresis.

The results in this text go back to PMC8289069, “Functional requirement of terminal inverted repeats for efficient ProtoRAG activity reveals the early evolution of V(D)J recombination”.

B1: 12RSS (dsDNA)
DNA 1: GATCTGGCCTGTCTTACACAGTGATACAGACCTTAACAAAAACCCTGCAG
DNA 2: CTGCAGGGTTTTTGTTAAGGTCTGTATCACTGTGTAAGACAGGCCAGATC
Turning to B1, the binding result was “binds”.
